Consider 10 molecules from patent US20240425606A1, “ANTI-IL-11RA ANTIBODIES” (Lassen Therapeutics 1, Inc., priority 2021, published 2024).

Where a chain is given by its changes, count along the chain named. Names and notes keep the numbering of the source.

First the molecules themselves.
T1: hIL-11Rα (Homo sapiens, UniProt Q14626)
T1 sequence (Q14626 23-422): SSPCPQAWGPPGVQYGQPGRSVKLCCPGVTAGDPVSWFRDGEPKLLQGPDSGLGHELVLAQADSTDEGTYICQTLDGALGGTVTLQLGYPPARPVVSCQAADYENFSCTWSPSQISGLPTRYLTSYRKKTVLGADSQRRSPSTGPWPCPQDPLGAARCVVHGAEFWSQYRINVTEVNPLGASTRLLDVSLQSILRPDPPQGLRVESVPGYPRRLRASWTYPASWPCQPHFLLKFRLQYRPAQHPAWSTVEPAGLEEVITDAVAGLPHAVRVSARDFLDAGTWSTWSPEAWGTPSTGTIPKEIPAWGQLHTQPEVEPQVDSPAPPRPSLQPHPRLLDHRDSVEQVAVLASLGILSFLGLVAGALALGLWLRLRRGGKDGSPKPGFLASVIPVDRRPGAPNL

B1: mAb6: anti-IL-11Rα antibody; VH SEQ ID NO: 203, VL SEQ ID NO: 204; human IgG4 (S228P), kappa light chain (antibody, V domains shown)
VH: EVQLLESGGGLVQPGGSLRLSCAASGFTFSWYSMTWVRQAPGKGLEWVSSIVPYGDLTQYADSVKGRFTISRDNSKNTLYLQMNSLRAEDTAVYYCAKGPGWGSFDLWGRGTLVTVSS
VL: DIQMTQSPSSLSASVGDRVTITCQASQDINNYLNWYQQKPGKAPKLLIYDASNLQTGVPSRFSGSGSGTDFTFTISSLQPEDIATYYCQQHEFQSPTFGPGTKVDIK
modifications: human IgG4 S228P and kappa constant regions; mAb6 VH Chain; mAb6 VL Chain
notes: anti-IL-11Rα antibody; human IgG4 (S228P), kappa light chain
B2: mAb14: anti-IL-11Rα antibody; VH SEQ ID NO: 219, VL SEQ ID NO: 220; human IgG4 (S228P), kappa light chain (antibody, V domains shown)
VH: B1 VH with D62E
VL: B1 VL with F93S
modifications: human IgG4 S228P and kappa constant regions; mAb14 VH Chain; mAb14 VL Chain
notes: as for B1
B3: mAb15: anti-IL-11Rα antibody; VH SEQ ID NO: 221, VL SEQ ID NO: 222; human IgG4 (S228P), kappa light chain (antibody, V domains shown)
VH: B1 VH
VL: B1 VL with F93T, S95T
modifications: human IgG4 S228P and kappa constant regions; mAb15 VH Chain; mAb15 VL Chain
notes: as for B1
B4: mAb9: anti-IL-11Rα antibody; VH SEQ ID NO: 209, VL SEQ ID NO: 210; human IgG4 (S228P), kappa light chain (antibody, V domains shown)
VH: B1 VH with S50G
VL: B1 VL with F93S
modifications: human IgG4 and kappa constant regions; mAb9 VH Chain; mAb9 VL Chain
notes: as for B1
B5: mAb13: anti-IL-11Rα antibody; VH SEQ ID NO: 217, VL SEQ ID NO: 218; human IgG4 (S228P), kappa light chain (antibody, V domains shown)
VH: B1 VH with G99P, P100E, G101D, S104R
VL: B1 VL with F93S
modifications: human IgG4 S228P and kappa constant regions; mAb13 VH Chain; mAb13 VL Chain
notes: as for B1
B6: mAb7: anti-IL-11Rα antibody; VH SEQ ID NO: 205, VL SEQ ID NO: 206; human IgG4 (S228P), kappa light chain (antibody, V domains shown)
VH: B1 VH with W31N, S33A, T35S
VL: B1 VL with F93S
modifications: human IgG4 S228P and kappa constant regions; mAb7 VH Chain; mAb7 VL Chain
notes: as for B1
B7: mAb8: anti-IL-11Rα antibody; VH SEQ ID NO: 207, VL SEQ ID NO: 208; human IgG4 (S228P), kappa light chain (antibody, V domains shown)
VH: B1 VH with W31S, S33A, T35S
VL: B1 VL with F93S
modifications: human IgG4 and kappa constant regions; mAb8 VH Chain; mAb8 VL Chain
notes: as for B1
B8: mAb12: anti-IL-11Rα antibody; VH SEQ ID NO: 215, VL SEQ ID NO: 216; human IgG4 (S228P), kappa light chain (antibody, V domains shown)
VH: B1 VH with G103Y
VL: B1 VL with F93S
modifications: human IgG4 S228P and kappa constant regions; mAb12 VH Chain; mAb12 VL Chain
notes: as for B1
B9: mAb11: anti-IL-11Rα antibody; VH SEQ ID NO: 213, VL SEQ ID NO: 214; human IgG4 (S228P), kappa light chain (antibody, V domains shown)
VH: B1 VH with P53D
VL: B1 VL with F93S
modifications: human IgG4 S228P and kappa constant regions; mAb11 VH Chain; mAb11 VL Chain
notes: as for B1
B10: mAb10: anti-IL-11Rα antibody; VH SEQ ID NO: 211, VL SEQ ID NO: 212; human IgG4 (S228P), kappa light chain (antibody, V domains shown)
VH: B1 VH with P53A
VL: B1 VL with F93S
modifications: human IgG4 S228P and kappa constant regions; mAb10 VH Chain; mAb10 VL Chain
notes: as for B1

In one assay the target is T1, hIL-11Rα. Description: Kinetic binding analysis by biolayer interferometry (protein G biosensors, Octet RED96e). The following applies: beyond the ability of the instrument to determine an accurate off-rate (kd). As to the method: Association was carried out in the presence of a 2-fold dilution series of hIL-11Rα and was allowed to proceed for 120 seconds; dissociation was measured for 300 to 1200 seconds.
For B1, the “binding affinity (in words)” value is reported as “very high binding affinity”.
As to B2, the “binding affinity (in words)” value is given as “very high binding affinity”.
B3: the “binding affinity (in words)” value is reported as “very high binding affinity”.
Take B4: the “binding affinity (in words)” value is given as “very high binding affinity”.
On to B5, for which the “binding affinity (in words)” value is “very high binding affinity”.
For the molecule B6, the “binding affinity (in words)” value is “very high binding affinity”.
Regarding B7, the “binding affinity (in words)” value is “very high binding affinity”.
For the molecule B8, the “binding affinity (in words)” value is reported as “very high binding affinity”.

Still in this assay, the particulars now being: protein G biosensors; association 120 seconds.
The molecule B1 yielded a ka of 800000 M⁻¹ s⁻¹.
On the same count and under the same terms, to B2 belongs 33700 M⁻¹ s⁻¹.
With B3, the ka turned out to be 84000 M⁻¹ s⁻¹.
As for B4, the ka came to 62200 M⁻¹ s⁻¹.
B5 gave a ka of 66700 M⁻¹ s⁻¹.
B6 displayed a ka of 63500 M⁻¹ s⁻¹.
Regarding B9, the ka is 32900 M⁻¹ s⁻¹.
The same measure, in the same setting: to B7 belongs 65100 M⁻¹ s⁻¹.
B10 showed a ka of 840000 M⁻¹ s⁻¹.
B8 registered a ka of 58100 M⁻¹ s⁻¹.

The assay is the same for the next values; noted with them: protein G biosensors; dissociation 300 to 1200 seconds.
With B1, the kd was below 1e-07 s⁻¹.
Regarding B2, the kd is below 1e-07 s⁻¹.
For the molecule B3, the kd was below 1e-07 s⁻¹.
In the case of B4, the kd was below 1e-07 s⁻¹.
Still for that read-out and setting: to B5 belongs below 1e-07 s⁻¹; to B6, below 1e-07 s⁻¹.
With B9, the kd worked out at 0.0181 s⁻¹.
As to B7, the kd was below 1e-07 s⁻¹.
On to B10, for which the kd amounted to 0.000416 s⁻¹.
Still for that read-out and setting: to B8 belongs below 1e-07 s⁻¹.

The next assay deals with IL-11 signaling in STAT3 Reporter (Luciferase)—HEK293 cell line. Description: Cell-based STAT3 reporter (luciferase) assay for inhibiting IL-11 signaling. Also noted: species or system human. The following applies: compared with TS7 and 8E2. As to the method:
Further testing of the lead mAbs was carried out using a cell-based reporter assay. IL-11 is reported to signal through the STAT3 and ERK pathways. Therefore, a STAT3 reporter cell line in which firefly luciferase gene expression is driven by STAT3 response elements located upstream of a minimal TATA promoter was selected to analyze mAb functional activity. In these cells, IL-11 can activate the endogenous STAT3 allowing it to bind to the STAT3 response elements, inducing transcription of the luciferase reporter gene and resulting in readily detectable luciferase expression. Antibodies to IL-11R which block IL-11 signaling should inhibit expression of IL-11 driven luciferase in these cells.
The STAT3 Reporter (Luciferase)—HEK293 cell line (BPS Bioscience, catalog #79800-P) was grown, passaged, and assayed as per manufacturer's protocols. Cells were added at 25,000 cells per well in a 96-well microtiter dish and incubated at 37° C. for 30-45 min. in 5% CO2 humidified air. Anti-IL-11R mAbs were added as a 3-fold dilution series in duplicate columns or rows, and plates were returned to the incubator for an additional 1 h at 37° C. after which 40 ng/mL IL-11 was added to each well to initiate the signal transduction cascade and luciferase production. Plates were incubated for 18-24 hours at 37° C. and luciferase was detected using a One-Step Luciferase Assay System (BPS Bioscience, cat. no. 60690-1) as per manufacturer's instructions.
Regarding B1, the “relative potency at inhibiting IL-11 signaling (in words)” value is recorded as “variable”.
On to B2, for which the “relative potency at inhibiting IL-11 signaling (in words)” value is “comparable in potency to TS7”.
On to B3, for which the “relative potency at inhibiting IL-11 signaling (in words)” value was “comparable in potency to TS7”.
B4: the “relative potency at inhibiting IL-11 signaling (in words)” value is “more potent at inhibiting IL-11 signaling than either of TS7 or 8E2”.
Still for that read-out and setting: to B5 belongs “more potent at inhibiting IL-11 signaling than either of TS7 or 8E2”; to B6, “less potent than TS7”.
For B9, the “relative potency at inhibiting IL-11 signaling (in words)” value was “less potent than TS7”.
Turning to B7, the “relative potency at inhibiting IL-11 signaling (in words)” value is reported as “less potent than TS7”.
Still for that read-out and setting: to B10 belongs “less potent than TS7”; to B8, “comparable in potency to TS7”.
